Several values for one entry are separate records, joined by “and”; a condition that tells them apart may be missing. Identical values can stand only once.
Assays:
Format in all cases: physicochemical
[1] = Bulk density (BD), USP 2014 Method I (616) Bulk Density and Tapped Density of Powders; conditions: lyophilized Tirzepatide powder, before particle size reduction
Experimental: Bulk density (BD) was measured according to USP 2014 Method I (616) Bulk Density and Tapped Density of Powders.

[2] = Flowability, flow through an orifice (BEP2 Flowability Tester, 25 mm nozzle); conditions: lyophilized Tirzepatide powder; flow through funnel, 25 mm aperture
Source text: Instrument: BEP2 Flowability Tester from Copley Scientific, with Funnel Attachment and Manually Operated Stirrer with a nozzle corresponding to aperture size of 25 mm.
Methodology: Flow Through an Orifice
The test sample was introduced into the funnel and the time required for the entire sample to flow out of the funnel was measure using a suitable stopwatch.
The flow rate results are expressed in terms of mass vs time, i.e., grams per second.

[3] = Particle size distribution by laser diffraction (Malvern Mastersizer 3000, Mie theory, Isopar-G); conditions: Tirzepatide powder after particle size reduction (jet milling or sieving)
Experimental: As used herein, particle size distribution is determined by means of laser diffractometry. More specifically, unless otherwise indicated, the particle size was determined using a Mastersizer 3000 from Malvern Instruments. Preferably, particle size and particle size distribution are determined by laser light diffraction, using Mie theory, and Isopar-G dispersant (isoparaffinic fluid (CAS No) 64742-48-9)) refractive index 1.42.
It will be understood that the term “D(90)” as used herein refers to a particle size distribution where 90% of the volume of particles have a diameter lower than the D(90) value.
• Instrumentation: Malvern Laser Diffraction Mastersizer 3000, Hydro My cell • Measuring range: 0.01-3500 mcm • Analysis model: Mie Theory • Powder RI: 1.488, Absorption: 1 • Dispersant name: Isopar-G • Dispersant RI: 1.42 • Speed rate of the flow cell: 2500 • Internal Sonication: 1 minute • Recirculation time: 1 minute

| Substance | BD (bulk density) [1] [g/mL] | flowability [2] | particle size d(0.9) [3] |
| --- | --- | --- | --- |
| Tirzepatide [Example 1A] | 0.13 | 9.7 g/s | – |
| Tirzepatide [Example 2] | – | – | 21.9 μm |
| Tirzepatide [Example 3] | – | – | 31 μm and 30.9 μm |
| Tirzepatide [Example 1B] | 0.007 | non flowable | – |
| Tirzepatide [Example 3A] | – | – | 59 μm and 59.1 μm |
| Tirzepatide [Example 3B] | – | – | 128 μm and 128.0 μm |
| Tirzepatide [Example 1] | 0.1 | 6.1 g/s | – |

Source: US20260265332A1, “PROCESS FOR PREPARATION OF DUAL GIP/GLP-1 PEPTIDES HAVING CONTROLLED PARTICLE SIZE” (ASSIA CHEMICAL INDUSTRIES LTD., priority 2023, published 2026)
